B1: glmS ribozyme (parent)
chain: AUAAAAGCGCCAGAACUACAGAAAUGUAGUUGACGAGGAGGAGGUUUAUCGAAUUUUCGGCGGAUGCCUCCAAA

Holding throughout (details): with glucosamine-6-phosphate
In data set [1] the parent is B1. Nature of the data set: self-cleavage kobs at 40 uM GlcN6P; higher = faster cleavage; RNA array. A digest of the protocol: (§1)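 Barcoded ribozyme variants were transcribed in situ on sequenced MiSeq chips by E. coli RNA polymerase. At 37 °C, a hybridised Cy3 probe tracked them while glucosamine-6-phosphate (40 μM to 10 mM) in HEPES/KCl/Mg(OAc)2 buffer flowed in and tiles were imaged over ~14 h. Per-tile medians of signals normalised to baseline and to non-cleaving reference variants were fit to one- or two-exponential decays, giving kobs. kcat and KM came from weighted Michaelis–Menten fits across concentrations.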

Variants of B1 are the subject of data set [2]. As to the kind of experiment: self-cleavage kobs at 10000 uM GlcN6P; higher = faster cleavage; RNA array. Put shortly:
as §1

Variants of B1 are the subject of data set [3]. Nature of the data set: self-cleavage kobs at 2500 uM GlcN6P; higher = faster cleavage; RNA array. Put shortly: as §1
Variants of B1 are the subject of data set [4]. Nature of the data set: self-cleavage kobs at 160 uM GlcN6P; higher = faster cleavage; RNA array. Put shortly: as §1
In data set [5] the parent is B1. As to the kind of experiment: self-cleavage kobs at 640 uM GlcN6P; higher = faster cleavage; RNA array. A digest of the protocol:
as §1

± gives the standard error. Fewer inactive variants are shown than the library holds.

We go through 12 variants from the supplement of paper PMC7125110.

In the case of AUAAAAGCACCAGAACUACAGAAAUGUAGUUGACGAGGUGGAGAUUUAUCGAAUCUUCGGCGGAUGCCUCCAAA [G9A A39U G44A U55C], the “self-cleavage kobs at 40 uM GlcN6P” value with glucosamine-6-phosphate [1] was under 1e-05 s⁻¹. For the same variant, the “self-cleavage kobs at 10000 uM GlcN6P” value in the data set with glucosamine-6-phosphate [2] is under 1e-05 s⁻¹.
AUAAAAGCGCCAGAACUACAGAAAUGUAGUUGACGAGGAGAAGGCUUAUCGAAUUUUCGGCGGAUGCCUUCAAA [G41A U45C C70U]: in the data set with glucosamine-6-phosphate [1], the “self-cleavage kobs at 40 uM GlcN6P” value amounted to 9.09e-05 ± 2e-05 s⁻¹. In the data set with glucosamine-6-phosphate [3], the “self-cleavage kobs at 2500 uM GlcN6P” value stood at 0.00174 ± 0.00052 s⁻¹. For the same variant, the “self-cleavage kobs at 10000 uM GlcN6P” value in the data set with glucosamine-6-phosphate [2] was 0.00358 ± 0.00079 s⁻¹.
With AUAAAAACGCGUGAACUACAGAAAUGUAGUUGACGAGGAGGCGAUUUAUCCAUUUUUCGGCGGAUGCCUCUAAA [G7A C11G A12U A42C G44A G51C A53U C71U], the “self-cleavage kobs at 40 uM GlcN6P” value with glucosamine-6-phosphate [1] was under 1e-05 s⁻¹. The “self-cleavage kobs at 10000 uM GlcN6P” value with glucosamine-6-phosphate [2] is under 1e-05 s⁻¹.
As to AUAAAAGAGCCAGAACUACAGAAAUGUAGUUGACGAGGAGGAGGUUUAUCGAUUUUUCGGCGGAUGCCUCCAAA [C8A A53U], in the data set with glucosamine-6-phosphate [1], the “self-cleavage kobs at 40 uM GlcN6P” value is under 1e-05 s⁻¹. In the data set with glucosamine-6-phosphate [4], the “self-cleavage kobs at 160 uM GlcN6P” value is under 1e-05 s⁻¹. Also, the “self-cleavage kobs at 640 uM GlcN6P” value with glucosamine-6-phosphate [5] is under 1e-05 s⁻¹. Also, the “self-cleavage kobs at 2500 uM GlcN6P” value with glucosamine-6-phosphate [3] is under 1e-05 s⁻¹. Further, the “self-cleavage kobs at 10000 uM GlcN6P” value with glucosamine-6-phosphate [2] is under 1e-05 s⁻¹.
For AUAAAAGGGCCAGAACUACAGAAAUGUAGUUGACGAGGAGGAGGUUUAUCGAAUUCUCGGCCGAUGCCUCCAAA [C8G U56C G62C], in the data set with glucosamine-6-phosphate [1], the “self-cleavage kobs at 40 uM GlcN6P” value was under 1e-05 s⁻¹. Besides, the “self-cleavage kobs at 640 uM GlcN6P” value with glucosamine-6-phosphate [5] was under 1e-05 s⁻¹. Also, in the data set with glucosamine-6-phosphate [3], the “self-cleavage kobs at 2500 uM GlcN6P” value was under 1e-05 s⁻¹. Moreover, the “self-cleavage kobs at 10000 uM GlcN6P” value with glucosamine-6-phosphate [2] was under 1e-05 s⁻¹.
Consider AUAAAAACUCCAGAACUACAGAAAUGUAGUGGACGAGGAGAAGGUUUAUCGAAUUUUCGGCGGACGCCUCCAAA [G7A G9U U31G G41A U65C], for which the “self-cleavage kobs at 40 uM GlcN6P” value with glucosamine-6-phosphate [1] is under 1e-05 s⁻¹. Also, the “self-cleavage kobs at 160 uM GlcN6P” value in the data set with glucosamine-6-phosphate [4] is under 1e-05 s⁻¹. Also, the “self-cleavage kobs at 640 uM GlcN6P” value with glucosamine-6-phosphate [5] is under 1e-05 s⁻¹.
On to AUAAAAGCGUCCGAACUACAGAAAUGUAGUUGACGAGGAGGAGGUUUAUCGACUUUUCGGCGGAUGCCUCCAAA [C10U A12C A53C], for which, in the data set with glucosamine-6-phosphate [1], the “self-cleavage kobs at 40 uM GlcN6P” value is under 1e-05 s⁻¹.
Consider AUAAAAGCGCCAUAACUACAGAAAUGUAGUUGACGAGCAGGAUGUUUAUCGAAUUUUCGGCGGAUGCCUCCAAA [G13U G38C G43U], for which the “self-cleavage kobs at 40 uM GlcN6P” value in the data set with glucosamine-6-phosphate [1] is under 1e-05 s⁻¹. Moreover, the “self-cleavage kobs at 10000 uM GlcN6P” value with glucosamine-6-phosphate [2] was under 1e-05 s⁻¹.
AUAAAAGCGCCAGAACUACAGAAAUGUAGUUGACGAGGAGGAGGUUUAUCAAAUGUUCGGCGGAUGCCUCCAAA [G51A U55G]: the “self-cleavage kobs at 40 uM GlcN6P” value with glucosamine-6-phosphate [1] is under 1e-05 s⁻¹. For the same variant, the “self-cleavage kobs at 160 uM GlcN6P” value with glucosamine-6-phosphate [4] is under 1e-05 s⁻¹. Besides, in the data set with glucosamine-6-phosphate [5], the “self-cleavage kobs at 640 uM GlcN6P” value was under 1e-05 s⁻¹.
Regarding AUAAAAGCGCCAGAACUACAGAAAUGUAGUUGACGAGAAGAAGGUUUAUCGAAUUUUCGGCGGAUGCCUCCAAA [G38A G41A], the “self-cleavage kobs at 40 uM GlcN6P” value with glucosamine-6-phosphate [1] is under 1e-05 s⁻¹. Further, in the data set with glucosamine-6-phosphate [4], the “self-cleavage kobs at 160 uM GlcN6P” value was under 1e-05 s⁻¹. Moreover, the “self-cleavage kobs at 640 uM GlcN6P” value in the data set with glucosamine-6-phosphate [5] is under 1e-05 s⁻¹. Besides, the “self-cleavage kobs at 2500 uM GlcN6P” value with glucosamine-6-phosphate [3] is under 1e-05 s⁻¹. In the data set with glucosamine-6-phosphate [2], the “self-cleavage kobs at 10000 uM GlcN6P” value was under 1e-05 s⁻¹.
Regarding AUAAAAGCGCCAGAAGUACAGAAAUGUAGUUGAGGAGGACGAGGUUUAUCGAAUAUUUGGCGGAUGCCACCAAA [C16G C34G G40C U55A C58U U69A], the “self-cleavage kobs at 40 uM GlcN6P” value in the data set with glucosamine-6-phosphate [1] was under 1e-05 s⁻¹. Further, the “self-cleavage kobs at 10000 uM GlcN6P” value with glucosamine-6-phosphate [2] was under 1e-05 s⁻¹.
For AUAAAAGCGCCAAAACUACAGAAAUGUAGUUGACGAGGAGGAGGUUUAUCGAAUUUUCGGCUGAUGCCUCCAAA [G13A G62U], the “self-cleavage kobs at 40 uM GlcN6P” value with glucosamine-6-phosphate [1] is under 1e-05 s⁻¹. Also, the “self-cleavage kobs at 160 uM GlcN6P” value with glucosamine-6-phosphate [4] is under 1e-05 s⁻¹. The “self-cleavage kobs at 640 uM GlcN6P” value with glucosamine-6-phosphate [5] was under 1e-05 s⁻¹. In the data set with glucosamine-6-phosphate [3], the “self-cleavage kobs at 2500 uM GlcN6P” value was under 1e-05 s⁻¹. In addition, the “self-cleavage kobs at 10000 uM GlcN6P” value with glucosamine-6-phosphate [2] is under 1e-05 s⁻¹.
